This is an account of results in publication PMC4448915 (Structure (London, England : 1993), 2015).

The Kd is the free concentration of one partner at which half of the binding sites on the other are occupied at equilibrium, for simple one-to-one binding. For orientation: stoichiometry N means the number of molecules, sites or subunits per partner or assembly.

Experiment [1] concerns the target T1, ubiquitin (Ub), monomeric, wild type (UniProt P0CG48 1-76). The experiment is described as follows: NMR titration.
Experiment [2] has as its target T1, ubiquitin (Ub), monomeric, wild type. The experiment is described as follows: NMR titration. The source holds these as a separate data set.

Several values for one entry are separate records, joined by “and”; a condition that tells them apart may be missing. Equal entries are not always repeated. Where two headings read alike, the source gives them in different places.

B1: Ufo1UIMs, Ufo1 fragment of residues 547-668 comprising three UIM motifs (domain or fragment, UniProt Q04511 547-668, looked up)
chain: DEDEQLRRALEESQLIYETQTNSSANHGNNTNDEIDEDDEEFLRAIRQSRVEDERRRHLRNHTTGRRNGPLSDDNFATYGAAESSERTSTENTIGSSVGVDASNNVDEDLQLAIALSLSEIN
Molecule B1 came in with a Kd in experiment [1] of 237 ± 52 µM.

B2: Ddi1UBA, ubiquitin-associated (UBA) domain of Ddi1 from Saccharomyces cerevisiae, residues 389-428 (domain or fragment, S. cerevisiae, UniProt P40087 389-428, looked up)
chain: TFPEQTIKQLMDLGFPRDAVVKALKQTNGNAEFAASLLFQ
As for B2, the Kd was determined as 150 ± 16 µM in experiment [1] and 291 ± 13 µM in experiment [2].

B3: Ddi1UBL, ubiquitin-like (UBL) domain of DNA-damage-inducible 1 protein (Ddi1) from Saccharomyces cerevisiae, residues 2-80 (domain or fragment, S. cerevisiae, UniProt P40087 2-80, looked up)
chain: DLTISNELTGEIYGPIEVSEDMALTDLIALLQADCGFDKTKHDLYYNMDILDSNRTQSLKELGLKTDDLLLIRGKISNS
Turning to B3, the Kd in experiment [1] is 45 µM and 71 µM; in experiment [2], 175 ± 25 µM. For the same molecule, the “stoichiometry N” value in experiment [1] was 1.

B4: full-length (FL) Ddi1 protein from Saccharomyces cerevisiae (natural protein, S. cerevisiae, UniProt P40087 1-428, looked up)
chain: MDLTISNELTGEIYGPIEVSEDMALTDLIALLQADCGFDKTKHDLYYNMDILDSNRTQSLKELGLKTDDLLLIRGKISNSIQTDAATLSDEAFIEQFRQELLNNQMLRSQLILQIPGLNDLVNDPLLFRERLGPLILQRRYGGYNTAMNPFGIPQDEYTRLMANPDDPDNKKRIAELLDQQAIDEQLRNAIEYTPEMFTQVPMLYINIEINNYPVKAFVDTGAQTTIMSTRLAKKTGLSRMIDKRFIGEARGVGTGKIIGRIHQAQVKIETQYIPCSFTVLDTDIDVLIGLDMLKRHLACVDLKENVLRIAEVETSFLSEAEIPKSFQEGLPAPTSVTTSSDKPLTPTKTSSTLPPQPGAVPALAPRTGMGPTPTGRSTAGATTATGRTFPEQTIKQLMDLGFPRDAVVKALKQTNGNAEFAASLLFQ
With B4, in experiment [1], the binding result is reported as “binds”.
